{"source": "patent US6950754", "key": {"6A": {"biological_target": "6A", "experiment": "size exclusion chromatography, self-association"}, "6B": {"biological_target": "6B", "experiment": "size exclusion chromatography, self-association"}, "6E": {"biological_target": "6E", "experiment": "size exclusion chromatography, self-association"}, "pda8d [1]": {"biological_target": "pda8d", "experiment": "sedimentation equilibrium, monomer-dimer-tetramer model; dimer-to-tetramer self-association"}, "pda8d [2]": {"biological_target": "pda8d", "experiment": "sedimentation equilibrium, monomer-dimer-tetramer model; monomer-to-dimer self-association"}, "6C": {"biological_target": "6C", "experiment": "size exclusion chromatography, self-association"}, "6D": {"biological_target": "6D", "experiment": "size exclusion chromatography, self-association"}, "6F": {"biological_target": "6F", "experiment": "size exclusion chromatography, self-association"}}, "data": [{"binder": "RMEKLEDKVRELLRKNRRLEEEVRRLKELVGER (modifications not checked)", "note": "[6A]", "values": [{"measurement": "oligomerization state (N)", "setting": "6A", "value": 2}]}, {"binder": "RMEKLEQKVKELLRKNERLEEEVERLKQLVGER (modifications not checked)", "note": "[6B]", "values": [{"measurement": "oligomerization state (N)", "setting": "6B", "value": 2}]}, {"binder": "RMNTLERKVAKLLSKNANLEHEVNTLKQLVGER (modifications not checked)", "note": "[6E]", "values": [{"measurement": "oligomerization state (N)", "setting": "6E", "value": 2}]}, {"binder": "KPYTARIKGRTFSNEKELRDFLETFTGR (modifications not checked)", "note": "[pda8d]", "values": [{"measurement": "Kd", "setting": "pda8d [1]", "value": "> 4", "unit": "mM"}, {"measurement": "Kd", "setting": "pda8d [2]", "value": "0.5 to 1.5", "unit": "mM"}]}, {"binder": "RMARLEAKVAALLAKNRRLEREVARLKALVGER (modifications not checked)", "note": "[6C]", "values": [{"measurement": "oligomerization state (N)", "setting": "6C", "value": 2}]}, {"binder": "RMRELEEKVRRLLRKNEDLEREVKRLKELVGER (modifications not checked)", "note": "[6D]", "values": [{"measurement": "oligomerization state (N)", "setting": "6D", "value": 2}]}, {"binder": "RMAALEAKVAALLAKNAALEAEVAALKALVGER (modifications not checked)", "note": "[6F]", "values": [{"measurement": "oligomerization state (N)", "setting": "6F", "value": 4}]}]}
